# From patent publication US20180346600A1 (AJOU UNIVERSITY INDUSTRY ACADEMIC COOPERATION FOUNDATION, published 2018)
# Biological target: the molecule itself
# Assay: HEK293-F co-expression, Protein A purification, non-reducing SDS-PAGE densitometry
# Description: The CH3 domain mutant pair of the individual clones selected from the LibA2 and LibB2 libraries in Example 8 above was cloned into an animal cell expression vector so that the CH3A mutant was expressed into the scFv-FcCH3A format and the CH3B mutant was expressed into the FcCH3B format.
# The EW-RVT and A107_{w/oW-VT}, B168_{w/oW-VT} mutant pairs were used as control groups.
row,Protein,(FC)2 (homodimer)(%)
1,"FcCH3B, EW-RVT (Q347R/D399V/F405T) (other, also called EW-RVT CH3B chain) TCPPCPAPELLGGPSVFLFPPKPKDTLMISRTPEVTCVVVDVSHEDPEVKFNWYVDGVEVHNAKTKPREEQYNSTYRVVSVLTVLHQDWLNGKEYKCKVSNKALPAPIEKTISKAKGQPREPRVYTLPPSRDELTKNQVSLTCLVKGFYPSDIAVEWESNGQPENNYKTTPPVLVSDGSFTLYSKLTVDKSRWQQGNVFSCSVMHEALHNHYTQKSLSLSPGK",1.6
2,"FcCH3B, B239 (D399S/K392G/K409M) (other, also called B239 CH3B chain) TCPPCPAPELLGGPSVFLFPPKPKDTLMISRTPEVTCVVVDVSHEDPEVKFNWYVDGVEVHNAKTKPREEQYNSTYRVVSVLTVLHQDWLNGKEYKCKVSNKALPAPIEKTISKAKGQPREPQVYTLPPSRDELTKNQVSLTCLVKGFYPSDIAVEWESNGQPENNYGTTPPVLSSDGSFFLYSMLTVDKSRWQQGNVFSCSVMHEALHNHYTQKSLSLSPGK",20.3
3,"FcCH3B, B212 (D399G/K392G/K409M) (other, also called B212 CH3B chain) TCPPCPAPELLGGPSVFLFPPKPKDTLMISRTPEVTCVVVDVSHEDPEVKFNWYVDGVEVHNAKTKPREEQYNSTYRVVSVLTVLHQDWLNGKEYKCKVSNKALPAPIEKTISKAKGQPREPQVYTLPPSRDELTKNQVSLTCLVKGFYPSDIAVEWESNGQPENNYGTTPPVLGSDGSFFLYSMLTVDKSRWQQGNVFSCSVMHEALHNHYTQKSLSLSPGK",33.8
4,"FcCH3B, B235 (D399C/K392G/K409M) (other, also called B235 CH3B chain) TCPPCPAPELLGGPSVFLFPPKPKDTLMISRTPEVTCVVVDVSHEDPEVKFNWYVDGVEVHNAKTKPREEQYNSTYRVVSVLTVLHQDWLNGKEYKCKVSNKALPAPIEKTISKAKGQPREPQVYTLPPSRDELTKNQVSLTCLVKGFYPSDIAVEWESNGQPENNYGTTPPVLCSDGSFFLYSMLTVDKSRWQQGNVFSCSVMHEALHNHYTQKSLSLSPGK",6.9
5,"FcCH3B, B215 (D399W/K392G/K409M) (other, also called B215 CH3B chain) TCPPCPAPELLGGPSVFLFPPKPKDTLMISRTPEVTCVVVDVSHEDPEVKFNWYVDGVEVHNAKTKPREEQYNSTYRVVSVLTVLHQDWLNGKEYKCKVSNKALPAPIEKTISKAKGQPREPQVYTLPPSRDELTKNQVSLTCLVKGFYPSDIAVEWESNGQPENNYGTTPPVLWSDGSFFLYSMLTVDKSRWQQGNVFSCSVMHEALHNHYTQKSLSLSPGK",20
6,"FcCH3B, B256 (D399V/K392G/K409M) (other, also called B256 CH3B chain) TCPPCPAPELLGGPSVFLFPPKPKDTLMISRTPEVTCVVVDVSHEDPEVKFNWYVDGVEVHNAKTKPREEQYNSTYRVVSVLTVLHQDWLNGKEYKCKVSNKALPAPIEKTISKAKGQPREPQVYTLPPSRDELTKNQVSLTCLVKGFYPSDIAVEWESNGQPENNYGTTPPVLVSDGSFFLYSMLTVDKSRWQQGNVFSCSVMHEALHNHYTQKSLSLSPGK",16.7
7,"FcCH3B, B240 (D399G/K392G/K409M) (other, also called B240 CH3B chain) TCPPCPAPELLGGPSVFLFPPKPKDTLMISRTPEVTCVVVDVSHEDPEVKFNWYVDGVEVHNAKTKPREEQYNSTYRVVSVLTVLHQDWLNGKEYKCKVSNKALPAPIEKTISKAKGQPREPQVYTLPPSRDELTKNQVSLTCLVKGFYPSDIAVEWESNGQPENNYGTTPPVLGSDGSFFLYSMLTVDKSRWQQGNVFSCSVMHEALHNHYTQKSLSLSPGK",11.9

# Biological target: the molecule itself
# Assay: as above
# Remark: another data set of the same source
# Description: The pcDNA3.1 (+)-scFv-FcCH3A and pcDNA3.1 (+)-FcCH3B animal cell expression vectors that were constructed using the HEK293-F system (Invitrogen) were used to produce antibodies by transient transfection, and the heterodimer formation ability was compared. Specifically, a mixture of an expression vector and polyethylenimine (PEI) (Polyscience) was transfected into HEK293-F cells (Invitrogen) that were suspension-grown on a serum-free FreeStyle 293 expression medium (Invitrogen) in a shaking flask (Corning). When transfecting 30 ml of the mixture in the shaking flask, HEK293-F cells were seeded at a density of 1.0×10⁶ cell/ml in 30 ml of medium and cultured at 125 rpm and 8% CO₂. […] Then, the reacted mixed medium was added to 30 ml of the previously seeded cells and cultured at 125 rpm and 8% CO₂ for 6 days. The cell culture supernatant collected with reference to the standard protocol was applied to Protein A Sepharose column (GE healthcare), washed with PBS (pH 7.4). The antibody was eluted at pH 3.0 with 0.1 M glycine buffer and immediately neutralized with 1 M Tris buffer. The eluted antibody fraction was concentrated using an Amicon Ultra (MILLIPORE) centrifugal concentrator after the buffer was exchanged with PBS (pH 7.4) using a Dextran Desalting Column (Thermo Scientific Pierce). The purified antibody was quantified by BCA technique.
# The W-VT and EW-RVT mutants were used as control groups.
row,Protein,(Fc)2 (homodimer) (%)
1,"FcCH3B, EW-RVT (Q347R/D399V/F405T) (other, also called EW-RVT CH3B chain) TCPPCPAPELLGGPSVFLFPPKPKDTLMISRTPEVTCVVVDVSHEDPEVKFNWYVDGVEVHNAKTKPREEQYNSTYRVVSVLTVLHQDWLNGKEYKCKVSNKALPAPIEKTISKAKGQPREPRVYTLPPSRDELTKNQVSLTCLVKGFYPSDIAVEWESNGQPENNYKTTPPVLVSDGSFTLYSKLTVDKSRWQQGNVFSCSVMHEALHNHYTQKSLSLSPGK",1.6
2,"FcCH3B, A108 (E357I/S364T/D399V/F405T) (other, also called A108 CH3B chain) TCPPCPAPELLGGPSVFLFPPKPKDTLMISRTPEVTCVVVDVSHEDPEVKFNWYVDGVEVHNAKTKPREEQYNSTYRVVSVLTVLHQDWLNGKEYKCKVSNKALPAPIEKTISKAKGQPREPQVYTLPPSRDILTKNQVTLTCLVKGFYPSDIAVEWESNGQPENNYKTTPPVLVSDGSFTLYSKLTVDKSRWQQGNVFSCSVMHEALHNHYTQKSLSLSPGK",13
3,"FcCH3B, A107 (E357N/D399V/F405T) (other, also called A107 CH3B chain) TCPPCPAPELLGGPSVFLFPPKPKDTLMISRTPEVTCVVVDVSHEDPEVKFNWYVDGVEVHNAKTKPREEQYNSTYRVVSVLTVLHQDWLNGKEYKCKVSNKALPAPIEKTISKAKGQPREPQVYTLPPSRDNLTKNQVSLTCLVKGFYPSDIAVEWESNGQPENNYKTTPPVLVSDGSFTLYSKLTVDKSRWQQGNVFSCSVMHEALHNHYTQKSLSLSPGK",2.4
4,"FcCH3B, B168 (K392G/K409M/D399V/F405T) (other, also called B168 CH3B chain) TCPPCPAPELLGGPSVFLFPPKPKDTLMISRTPEVTCVVVDVSHEDPEVKFNWYVDGVEVHNAKTKPREEQYNSTYRVVSVLTVLHQDWLNGKEYKCKVSNKALPAPIEKTISKAKGQPREPQVYTLPPSRDELTKNQVSLTCLVKGFYPSDIAVEWESNGQPENNYGTTPPVLVSDGSFTLYSMLTVDKSRWQQGNVFSCSVMHEALHNHYTQKSLSLSPGK",21.1
5,"FcCH3B, B135 (K392S/K409L/D399V/F405T) (other, also called B135 CH3B chain) TCPPCPAPELLGGPSVFLFPPKPKDTLMISRTPEVTCVVVDVSHEDPEVKFNWYVDGVEVHNAKTKPREEQYNSTYRVVSVLTVLHQDWLNGKEYKCKVSNKALPAPIEKTISKAKGQPREPQVYTLPPSRDELTKNQVSLTCLVKGFYPSDIAVEWESNGQPENNYSTTPPVLVSDGSFTLYSLLTVDKSRWQQGNVFSCSVMHEALHNHYTQKSLSLSPGK",27.9
6,"FcCH3B, A109 (E357M/S364W/D399V/F405T) (other, also called A109 CH3B chain) TCPPCPAPELLGGPSVFLFPPKPKDTLMISRTPEVTCVVVDVSHEDPEVKFNWYVDGVEVHNAKTKPREEQYNSTYRVVSVLTVLHQDWLNGKEYKCKVSNKALPAPIEKTISKAKGQPREPQVYTLPPSRDMLTKNQVWLTCLVKGFYPSDIAVEWESNGQPENNYKTTPPVLVSDGSFTLYSKLTVDKSRWQQGNVFSCSVMHEALHNHYTQKSLSLSPGK",5.8
7,"FcCH3B, A146 (E357M/D399V/F405T) (other, also called A146 CH3B chain) TCPPCPAPELLGGPSVFLFPPKPKDTLMISRTPEVTCVVVDVSHEDPEVKFNWYVDGVEVHNAKTKPREEQYNSTYRVVSVLTVLHQDWLNGKEYKCKVSNKALPAPIEKTISKAKGQPREPQVYTLPPSRDMLTKNQVSLTCLVKGFYPSDIAVEWESNGQPENNYKTTPPVLVSDGSFTLYSKLTVDKSRWQQGNVFSCSVMHEALHNHYTQKSLSLSPGK",14.6
8,"FcCH3B, B121 (K392E/D399V/F405T) (other, also called B121 CH3B chain) TCPPCPAPELLGGPSVFLFPPKPKDTLMISRTPEVTCVVVDVSHEDPEVKFNWYVDGVEVHNAKTKPREEQYNSTYRVVSVLTVLHQDWLNGKEYKCKVSNKALPAPIEKTISKAKGQPREPQVYTLPPSRDELTKNQVSLTCLVKGFYPSDIAVEWESNGQPENNYETTPPVLVSDGSFTLYSKLTVDKSRWQQGNVFSCSVMHEALHNHYTQKSLSLSPGK",25.2
